Data on 2 substances can be found in publication PMC9671094.

The target of one assay is PG9.VHVL (human). Description: SPR; IgG captured as ligand by anti-human IgG (Human Antibody Capture Kit) on a GLC chip, ProteOn XPR36; trimer as analyte; 1x HBS-EP+ pH 7.4 with 1 mg/ml BSA; 1:1 binding model; highest SOSIP concentration 5 uM or 10 uM. (In general: SPR reads the build-up and loss of mass on a sensor chip optically.)
In another assay the target is PG9.iGL.1MUT (human). Described as above.
A further assay concerns the target PG16 (human). Described as above.
The next assay has as its target PG9.HCDR3.1MUT (human). The description is as above.
The target of the next assay is PG16.VHVL (human). Described as above.
The next assay addresses PG9 (human). Described as above.
In the next assay the target is PG16.iGL (human). The assay is described as above.
For a further assay, the target named is PCT64.iGL (human). Described as above.
For assay [1], the target named is PG16.HCDR3 + 1MUT (human). Described as above.
Assay [2] addresses ApexGT2.2MUT trimer (HIV-1 isolate BG505). Description: cryo-EM structure.

As usually defined, the Kd is a measure of binding affinity in units of concentration. Take BG505 SOSIP.D664 (complex): the dissociation constant Kd with PG9.VHVL (human) is 72 nM; with PG9.iGL.1MUT (human) it was 645 nM; with PG16 (human), 38 nM; with PG9.HCDR3.1MUT (human), 317 nM; with PG16.VHVL (human) it was 1000 nM; with PG9 (human), 15.8 nM. The dissociation constant Kd with PG16.iGL (human) was above 5000 nM; with PCT64.iGL (human), above 5000 nM; in [1], 273 nM.
In turn, PCT64 LMCA Fab returned a stoichiometry N (Fab per trimer) in assay [2] of 1.
